Target: M66/StcE (Yersinia entomophaga (endogenous in the ΔLC derivative of MH96))
Assay: cryo-EM structure

Substance: M66/StcE (enzyme)
- stoichiometry N: 4
